Test results published in patent US20200262910A1 (SINGAPORE HEALTH SERVICES PTE, published 2020).

How the values were obtained:
[1] = target: T1, Human IL11RA (10252-H08H, SinoBiological) (human, UniProt Q14626 23-365); assay: SPR (BIAcore T200): ligand hIL11 immobilized, analyte hIL11RA, 1:1 Langmuir fit
T1 construct: also called hIL11RA
T1 sequence: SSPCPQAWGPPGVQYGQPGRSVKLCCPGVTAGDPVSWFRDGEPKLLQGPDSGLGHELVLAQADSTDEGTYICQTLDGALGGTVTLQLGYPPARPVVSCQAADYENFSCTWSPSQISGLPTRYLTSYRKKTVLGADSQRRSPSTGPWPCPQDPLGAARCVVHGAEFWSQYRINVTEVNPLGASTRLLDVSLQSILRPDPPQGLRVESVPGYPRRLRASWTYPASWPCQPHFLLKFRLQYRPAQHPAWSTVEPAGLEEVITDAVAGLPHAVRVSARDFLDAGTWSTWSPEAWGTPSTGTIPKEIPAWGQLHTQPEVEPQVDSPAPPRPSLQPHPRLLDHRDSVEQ
Experimental: (§1) SPR measurements were performed on a BIAcore T200 (GE Healthcare) at 25° C. Buffers were degassed and filter-sterilized through 0.2 μm filters prior to use. RhIL11 or rmIl11 was immobilized onto a carboxymethylated dextran (CM5) sensor chip using standard amine coupling chemistry. For kinetic analysis, a concentration series (3.125 nM to 100 nM) of human IL11RA or mouse Il11ra was injected over the rhIL11, rmIl11 and reference surfaces at a flow rate of 40 μl min⁻¹. All the analytes were dissolved in HBS-EP+ (BR100669, GE Healthcare) containing 1 mg ml⁻¹ BSA. The association and dissociation were measured for 150 s and 200 s respectively. After each analyte injection, the surface was regenerated by a 30 s injection of Glycine pH2.5, followed by a 5 min stabilisation period. All sensorgrams were aligned and double-referenced. Affinity and kinetic constants were determined by fitting the corrected sensorgrams with the 1:1 Langmuir model using BIAevaluation v3.0 software (GE Healthcare). The equilibrium binding constant KD was determined by the ratio of the binding rate constants kd/ka.

[2] = target: T2, Mouse IL11RA (50075-M08H, SinoBiological); mouse interleukin 11 receptor alpha chain 1 (mouse, UniProt Q64385 24-367); assay: SPR (BIAcore T200): ligand hIL11 immobilized, analyte mIL11RA, 1:1 Langmuir fit
T2 construct: also called mIL11RA1; IL11RA1
T2 sequence (looked up): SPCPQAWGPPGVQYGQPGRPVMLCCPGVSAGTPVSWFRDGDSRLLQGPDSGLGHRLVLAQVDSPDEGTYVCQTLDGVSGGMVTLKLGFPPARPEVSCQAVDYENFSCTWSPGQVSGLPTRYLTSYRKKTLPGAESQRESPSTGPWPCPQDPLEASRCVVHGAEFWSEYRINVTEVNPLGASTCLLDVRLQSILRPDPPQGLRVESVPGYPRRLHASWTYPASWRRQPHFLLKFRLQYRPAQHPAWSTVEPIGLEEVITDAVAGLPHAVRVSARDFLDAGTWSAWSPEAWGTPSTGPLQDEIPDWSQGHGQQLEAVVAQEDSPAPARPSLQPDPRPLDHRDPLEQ
Experimental: as §1

[3] = target: T2, Mouse IL11RA (50075-M08H, …); assay: SPR (BIAcore T200), IL11 immobilized on CM5, receptor as analyte, 1:1 Langmuir fit; rhIL11 (human ligand) on mouse IL11RA1
Experimental: as §1

[4] = target: T1, Human IL11RA (10252-H08H, …); assay: SPR (BIAcore T200, 25 C): rhIL11 immobilized on a CM5 chip, human IL11RA injected as analyte (3.125 to 100 nM), 1:1 Langmuir fit
Experimental: as §1

[5] = target: T2, Mouse IL11RA (50075-M08H, …); assay: SPR (BIAcore T200, 25 C): rhIL11 immobilized on a CM5 chip, mouse IL11RA injected as analyte (3.125 to 100 nM), 1:1 Langmuir fit
Experimental: as §1

[6] = target: T2, Mouse IL11RA (50075-M08H, …); assay: SPR (BIAcore T200): ligand mIL11 immobilized, analyte mIL11RA, 1:1 Langmuir fit
Experimental: as §1

[7] = target: T2, Mouse IL11RA (50075-M08H, …); assay: SPR (BIAcore T200), IL11 immobilized on CM5, receptor as analyte, 1:1 Langmuir fit; rmIL11 (mouse ligand) on mouse IL11RA1
Experimental: as §1

[8] = target: T2, Mouse IL11RA (50075-M08H, …); assay: SPR (BIAcore T200, 25 C): rmIL11 immobilized on a CM5 chip, mouse IL11RA injected as analyte (3.125 to 100 nM), 1:1 Langmuir fit
Experimental: as §1

B1: Recombinant human IL11 (rhIL11, UniProtKB:P20809, Genscript) (ligand)
chain: PGPPPGPPRVSPDPRAELDSTVLLTRSLLADTRQLAAQLRDKFPADGDHNLDSLPTLAMSAGALGALQLPGVLTRLRADLLSYLRHVQWLRRAGGSSLKTLEPELGTLQARLDRLLRRLQLLMSRLALPQPPPDPPAPPLAPPSSAWGGIRAAHAILGGLHLTLDWAVRGLLLLKTRL
notes: It was amine-coupled to a CM5 chip in SPR
Binder B1 has a Kd [1] of 45.3 nM, a koff [1] of 0.0204 s⁻¹ and a kon [1] of 451000 M⁻¹ s⁻¹. The Kd [2] was 72.3 nM, the koff [2] was 0.012 s⁻¹ and the kon [2] was 166000 M⁻¹ s⁻¹. For the same binder, the Kd [3] was 72 nM, the Kd [4] was 45.3 nM and the Kd [5] was 72.3 nM.

B2: Recombinant mouse IL11 (rmIL11, UniProtKB: P47873, Genscript) (ligand, UniProt P47873 22-199, looked up)
chain: PGPPAGSPRVSSDPRADLDSAVLLTRSLLADTRQLAAQMRDKFPADGDHSLDSLPTLAMSAGTLGSLQLPGVLTRLRVDLMSYLRHVQWLRRAGGPSLKTLEPELGALQARLERLLRRLQLLMSRLALPQAAPDQPVIPLGPPASAWGSIRAAHAILGGLHLTLDWAVRGLLLLKTRL
notes: Amine-coupled to a CM5 chip in SPR; also called biotinylated mouse Il11
In the case of B2, the Kd [6] is reported as 94.1 nM, the koff [6] is reported as 0.0115 s⁻¹ and the kon [6] is reported as 122000 M⁻¹ s⁻¹. It also gave a Kd [7] of 94 nM and a Kd [8] of 94.1 nM.
